Entries after “also recorded” stand apart in the source; their conditions may differ.
B1: full-length TyrRS: recombinant human tyrosyl-tRNA synthetase, 528 amino acid residues, C-terminal His6 tag (protein)
chain: MGDAPSPEEKLHLITRNLQEVLGEEKLKEILKERELKIYWGTATTGKPHVAYFVPMSKIADFLKAGCEVTILFADLHAYLDNMKAPWELLELRVSYYENVIKAMLESIGVPLEKLKFIKGTDYQLSKEYTLDVYRLSSVVTQHDSKKAGAEVVKQVEHPLLSGLLYPGLQALDEEYLKVDAQFGGIDQRKIFTFAEKYLPALGYSKRVHLMNPMVPGLTGSKMSSSEEESKIDLLDRKEDVKKKLKKAFCEPGNVENNGVLSFIKHVLFPLKSEFVILRDEKWGGNKTYTAYVDLEKDFAAEVVHPGDLKNSVEVALNKLLDPIREKFNTPALKKLASAAYPDPSKQKPMAKGPAKNSEPEEVIPSRLDIRVGKIITVEKHPDADSLYVEKIDVGEAEPRTVVSGLVQFVPKEELQDRLVVVLCNLKPQKMRGVESQGMLLCASIEGINRQVEPLDPPAGSAPGEHVFVKGYEKGQPDEELKPKKKVFEKLQADFKISEECIAQWKQTNFMTKLGSISCKSLKGGNISLEHHHHHH
modifications: C-terminal His6 tag; Human full-length TyrRS in pET20B
notes: recombinant human tyrosyl-tRNA synthetase, 528 amino acid residues, C-terminal His6 tag
B2: TyrRS carboxyl-terminal domain: residues 359-528 of full-length TyrRS (protein)
chain: MPEEVIPSRLDIRVGKIITVEKHPDADSLYVEKIDVGEAEPRTVVSGLVQFVPKEELQDRLVVVLCNLKPQKMRGVESQGMLLCASIEGINRQVEPLDPPAGSAPGEHVFVKGYEKGQPDEELKPKKKVFEKLQADFKISEECIAQWKQTNFMTKLGSISCKSLKGGNISLEHHHHHH
modifications: His6 tag; Human TyrRS carboxyl-terminal domain in pET20B
notes: residues 359-528 of full-length TyrRS
B3: E. coli TyrRS: E. coli tyrosyl-tRNA synthetase, similar in size to human mini TyrRS (protein)
chain: MASSNLIKQLQERGLVAQVTDEEALAERLAQGPIALYCGFDPTADSLHLGHLVPLLCLKRFQQAGHKPVALVGGATGLIGDPSFKAAERKLNTEETVQEWVDKIRKQVAPFLDFDCGENSAIAANNYDWFGNMNVLTFLRDIGKHFSVNQMINKEAVKQRLNREDQGISFTEFSYNLLQGYDFACLNKQYGVVLQIGGSDQWGNITSGIDLTRRLHQNQVFGLTVPLITKADGTKFGKTEGGAVWLDPKKTSPYKFYQFWINTADADVYRFLKFFTFMSIEEINALEEEDKNSGKAPRAQYVLAEQVTRLVHGEEGLQAAKRITECLFSGSLSALSEADFEQLAQDGVPMVEMEKGADLMQALVDSELQPSRGQARKTIASNAITINGEKQSDPEYFFKEEDRLFGRFTLLRRGKKNYCLICWK

What was measured:
MPs [1] = assay: MP chemotaxis assay (ChemoTX microchemotaxis chamber); assay type: cell-based, human; details: sample proteins 1 nM, 3 hours
Procedure: (§1) Cells for the various cytokine assays described were prepared from acid citrate dextrose-treated blood of normal healthy volunteers. Human PMNs were isolated from the blood by centrifugation (700×g) over Histopaque 1077 and 1119 (Sigma). […] This procedure was repeated twice. Human MPs were isolated by centrifugation on Histopaque 1077 (Sigma). The mononuclear fraction was obtained, washed twice in Hanks' balanced salt solution, resuspended in RPMI-1640 medium (Sigma) containing 10% heat-inactivated fetal bovine serum (Sigma), plated in tissue culture flasks, and incubated in a 6% CO2 incubator at 37° C. for 1-2 hours (Kumagai et al., 1979, J. Immunol. Methods 29:17-25). Nonadherent cells were removed by washing the flasks three times with Hanks' balanced salt solution, and adherent cells were harvested by incubation with calcium-magnesium free phosphate-buffered saline containing 2 mM EDTA for 15 minutes at 4° C., followed by extensive washing.
MP chemotaxis assays were performed in a ChemoTX microchemotaxis chamber (Neuro Probe, Gaithersburg, Md.) containing polycarbonate filters (5 μm pores) with polyvinylpyrrolidone (PVP). MPs were suspended in RPMI-1640 medium containing 1% heat-inactivated fetal bovine serum, and 10^4 cells were added to the upper chamber. Sample proteins (1 nM) were added to the lower compartment of chemotaxis chambers, and the chambers were incubated for 3 hours. After incubation, nonmigrating cells were removed, membranes were fixed in methanol, and migrating cells were visualized with the HEMACOLOR™ stain set (EM Diagnostic Systems, Gibbstown, N.J.). Migrating cells were counted in high-power fields (HPFs). Each determination shown in FIG. 2 represents the average of nine HPF measurements.

MPs [2] = assay: MP TNFα production (ELISA of culture supernatant); assay type: cell-based, human; details: 1 nM sample protein, 14 hours
Procedure: as §1
MP TNFα production was examined following incubation of 10^5 MPs with 1 nM of sample protein for 14 hours. Aliquots of the culture supernatant were then assayed for TNFα production using a TNFα enzyme-linked immunosorbent assay kit (Sigma). Each determination shown in FIG. 2 represents the mean of four measurements from at least three independent experiments.

[3] = system: human umbilical vein endothelial cells (HUVECs); assay: HUVEC migration assay (modified Boyden chamber); assay type: cell-based; details: 50 nM TyrRS molecule or 0.5 nM VEGF165, 6 hours
Procedure: In contrast, α-chemokines lacking the ELR motif act as angiostatic factors (id.). In order to evaluate the angiogenic activity of TyrRS, which contains the ELR motif, human full-length TyrRS and human mini TyrRS were first examined for their ability to induce endothelial cell migration. Such angiogenic assays were performed using human umbilical vein endothelial cells (HUVECs) (Clonetics, Walkersville, Md.). Cells were maintained in EGM-2® BULLETKIT® medium (Clonetics) in an atmosphere of 6% CO2 at 37° C. according to the supplier's instructions.
Cell migration assays were performed using the modified Boyden chamber (6.5 mm Transwells) with polycarbonate membranes (8.0 μm pore size) (Costar Corp., Cambridge, Mass.) (Masood et al., 1999, Blood 93:1038-44). Wells were coated overnight with 25 μg/mL human fibronectin (Biosource International, Camarillo, Calif.) in PBS and then allowed to air-dry. HUVECs were suspended in Dulbecco's modified Eagle's medium (DMEM) (Gibco-BRL, Gaithersburg, Md.) containing 0.1% BSA (Sigma) and 2×10^5 cells per well were added to the upper chamber. The chemotactic stimulus (50 nM of a given TyrRS molecule or 0.5 nM of human vascular endothelial growth factor-165 (VEGF165) (Biosource International, Camarillo, Calif.)) was placed in the lower chamber, and the cells were allowed to migrate for 6 hours at 37° C. in a 6% CO2 incubator. After incubation, non-migrant cells were removed from the upper face of the Transwell membrane with a cotton swab and migrant cells, those attached to the lower face, were fixed in methanol and visualized with the HEMACOLOR® stain set (EM Diagnostic Systems, Gibbstown, N.J.). Migrating cells were counted in high-power fields (HPFs). HUVECs were suspended in media with the inhibitor for 30 minutes before placement in the chamber. Each determination shown in FIG. 16 represents the average of nine HPF measurements.

MPs [4] = assay: MP tissue factor production (Factor VIIa-dependent Factor Xa formation); assay type: cell-based, human; details: 1 nM sample protein, 4 hours
Procedure: as §1
MP tissue factor production was examined following incubation of 10^4 MPs with 1 nM of sample protein for 4 hours. Tissue factor activity was then inferred from measurements of Factor VIIa-dependent Factor Xa formation (Wolfson et al., 1990 J. Chromatogr., 503:277-81). Each determination shown in FIG. 2 represents the mean of four measurements from at least three independent experiments.

PMNs [5] = assay: 125I-human mini TyrRS binding and competition assay on PMNs; details: 10 nM 125I-mini TyrRS, 200-fold molar excess of unlabeled ligand, on ice 2 hours
Procedure: The interaction of human mini TyrRS and PMNs was examined in binding studies using radioiodinated TyrRS molecules (Moser et al., 1993, J. Biol. Chem. 268:7125-28). Custom radioiodination of mini TyrRS with was performed by Research & Diagnostic Antibody (Richmond, Calif.). In the binding assays, 2×10^6 PMNs were first suspended in 120 μl of RPMI-1640 medium containing 20 mM Hepes (pH 7.4) and 10 mg/ml bovine serum albumin. […] Following incubation, cells were separated from unbound radioactivity by centrifugation at approximately 8000×g for 2 minutes through 500 μL, of a 10% sucrose/phosphate-buffered saline (PBS) cushion. The supernatant was aspirated, and the cell sediment was resuspended using EcoLite (ICN Biomedicals, Irvine, Calif.) and analyzed in a scintillation counter.
Following incubation, cells were separated from unbound radioactivity as described herein.

PMNs [6] = assay: PMN release of myeloperoxidase; assay type: cell-based, human; details: 1 nM sample protein, 60 minutes
Procedure: as §1
PMN release of myeloperoxidase was examined following incubation of 3×10^6 PMNs per mL with 1 nM of sample protein for 60 minutes. The generation of peroxidase was then measured by the reduction of 3,3′,5,5′-tetramethylbenzidine (Barker et al., 1982, FEBS Lett. 150:419-23). Peroxidase activity is shown in FIG. 3 as the percent of total peroxidase activity where 100% peroxidase activity is defined as the activity observed for 3×10^6 PMNs following exposure to 10 μM phorbol ester for 60 minutes. Each determination shown in FIG. 3 represents the mean of four measurements from at least three independent experiments.

PMNs [7] = assay: PMN chemotaxis assay (ChemoTX microchemotaxis chamber); assay type: cell-based, human; details: for PMN chemotaxis (PMN migration): sample proteins 1 nM, 45 min
Procedure: as §1
PMN chemotaxis assays were performed in a ChemoTX microchemotaxis chamber (described herein). Sample proteins (1 nM) were added to the lower compartment of chemotaxis chambers, and 10^4 PMNs were added to the upper compartment. Chambers were incubated for 45 min, and migrating cells were counted in HPFs. Each determination shown in FIG. 2 represents the average of nine HPF measurements.

Molecule	MP chemotaxis (MP migration) (MPs [1])	MP TNFα production (MPs [2])	HUVEC chemotaxis [3]	MP tissue factor production (MPs [4])	inhibition of 125I-mini TyrRS binding to PMNs by unlabeled ligand (PMNs [5])	PMN release of myeloperoxidase (PMNs [6])	PMN chemotaxis (PMN migration) (PMNs [7])	concentration dependence of PMN migration (PMNs [7])
B1	no chemotaxis was observed	none of the properties observed for the carboxyl-terminal domain	no chemotaxis was observed	none of the properties observed for the carboxyl-terminal domain	did not inhibit the binding	none of the properties observed for the carboxyl-terminal domain	none of the properties observed for the carboxyl-terminal domain	
B2	induced MP migration to an extent comparable with that observed for EMAP II	stimulated production		stimulated production	neither the TyrRS carboxyl-terminal domain nor EMAP II inhibited	induced the release of myeloperoxidase in PMNs	induced PMN migration	bell-shaped concentration dependence
B3	inactive in all of the assays	inactive in all of the assays		inactive in all of the assays	did not inhibit the binding	inactive in all of the assays	inactive in all of the assays; also recorded: no chemotaxis was observed	
